In PMC8291497 (ACS Chemical Biology, 2021):
Where no end group is shown, it is not given here. The star is where a group is joined. Dansyl = CN(C)c1cccc2c(S(=O)(=O)*)cccc12

What was measured:
Assay in all cases: stopped-flow fluorescence kinetics
Conditions in all cases: both partners purified
PARM^Y543A = PARM^Y543A (human, UniProt Q99767 364-570, Y524W | Y543A)
PARM^Y543E = PARM^Y543E (human, UniProt Q99767 364-570, Y524W | Y543E)
[1] = biological target: pseudo-wild type (pWT) PARM domain of Mint2 (residues 364-570, Y524W) (human, UniProt Q99767 364-570, Y524W)
[2] = biological target: PTB without the ARM linker (Mint2 residues 364-538) (human, UniProt Q99767 364-538, Y524W)

Measured: binding result

PARM^Y543E, sequence (Q99767 364-570 Y524W/Y543E): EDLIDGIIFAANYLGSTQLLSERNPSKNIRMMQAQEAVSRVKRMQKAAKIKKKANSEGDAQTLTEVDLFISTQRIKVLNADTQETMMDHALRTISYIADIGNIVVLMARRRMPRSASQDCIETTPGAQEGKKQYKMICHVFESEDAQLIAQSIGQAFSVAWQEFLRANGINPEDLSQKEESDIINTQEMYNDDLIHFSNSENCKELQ
PTB without the ARM linker (Mint2 residues 364-538), sequence (Q99767 364-538 Y524W): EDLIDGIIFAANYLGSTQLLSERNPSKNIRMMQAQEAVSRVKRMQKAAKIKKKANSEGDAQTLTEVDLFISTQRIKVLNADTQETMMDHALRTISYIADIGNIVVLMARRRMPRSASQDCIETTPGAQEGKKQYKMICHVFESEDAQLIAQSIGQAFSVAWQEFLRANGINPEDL
PARM^Y543A, sequence (Q99767 364-570 Y524W/Y543A): as the sequence (Q99767 364-570 Y524W/Y543E) above, with E180A counted along it
pseudo-wild type (pWT) PARM domain of Mint2 (residues 364-570, Y524W), sequence (Q99767 364-570 Y524W): as the sequence (Q99767 364-570 Y524W/Y543E) above, with E180Y counted along it

Dansyl-NGYENPTYKAFE [dansyl-APP F764A]
binds: all assays above

Dansyl-NGYENPTYKGFE [dansyl-APP F764G]
binds: all assays above

Dansyl-NGYENPTYKFAE [dansyl-APP F765A]
binds: all assays above

Dansyl-NGYENPTYKFGE [dansyl-APP F765G]
binds: all assays above

Dansyl-NGYENPTYAFFE [dansyl-APP K763A]
binds: all assays above

Dansyl-NGYENPTYGFFE [dansyl-APP K763G]
binds: all assays above

Dansyl-NGYENATYKFFE [dansyl-APP P760A]
binds: all assays above

Dansyl-NGYENGTYKFFE [dansyl-APP P760G]
binds: all assays above

Dansyl-NGFENPTYKFFE [dansyl-APP Y757F]
binds: all assays above

Dansyl-NGYENPTFKFFE [dansyl-APP Y762F]
binds: all assays above
